Where no end group is shown, it is not given here.
Target: EGLN2
Assay: cell-based or functional assay

Binder | Activity (%)* [%]
DTDLDLEAVAPYIPADDDFQ (not fully specified; printed as DTDLDLEAVApYIPADDDFQ) [DTDLDLEAVApYIPADDDFQ] | 86.8
DTDLDLEMLRPYIPMDDDFQ (not fully specified; printed as DTDLDLEMLRpYIPMDDDFQ) [DTDLDLEMLRpYIPMDDDFQ] | 14.3
DTDLDLEAKAPYIPADDDFQ [DTDLDLEAKApYIPADDDFQ] | 54.6
DTDLDLEAWAPYIPADDDFQ (not fully specified; printed as DTDLDLEAWApYIPADDDFQ) [DTDLDLEAWApYIPADDDFQ] | 42.4
DTDLDIEALAPYIPADDDFQ [DTDLDIEALApYIPADDDFQ] | 43.7
DTDLDLEMLEPYIPMDDDFQ (not fully specified; printed as DTDLDLEMLEpYIPMDDDFQ) [DTDLDLEMLEpYIPMDDDFQ] | 3.35
DTDLDIEAIAPYIPADDDFQ [DTDLDIEAIApYIPADDDFQ] | 64.3
DTDLDLEATAPYIPADDDFQ [DTDLDLEATApYIPADDDFQ] | 54.9
DTDLDAEAVAPYIPADDDFQ [DTDLDAEAVApYIPADDDFQ] | 26.3
DTDLDGEALAPYIPADDDFQ [DTDLDGEALApYIPADDDFQ] | 32
DTDLDLEMLCPYIPMDDDFQ (not fully specified; printed as DTDLDLEMLCpYIPMDDDFQ) [DTDLDLEMLCpYIPMDDDFQ] | 0.4
DTDLDVEAYAPYIPADDDFQ (not fully specified; printed as DTDLDVEAYApYIPADDDFQ) [DTDLDVEAYApYIPADDDFQ] | 32.4
DTDLDLEACAPYIPADDDFQ [DTDLDLEACApYIPADDDFQ] | 40.4
DTDLDCEALAPYIPADDDFQ [DTDLDCEALApYIPADDDFQ] | 48.8
DTDLDLEAYAPYIPADDDFQ (not fully specified; printed as DTDLDLEAYApYIPADDDFQ) [DTDLDLEAYApYIPADDDFQ] | 67.8
DTDLDVEAIAPYIPADDDFQ (not fully specified; printed as DTDLDVEAIApYIPADDDFQ) [DTDLDVEAIApYIPADDDFQ] | 36.6
DTDLDLEMLIPYIPMDDDFQ (not fully specified; printed as DTDLDLEMLIpYIPMDDDFQ) [DTDLDLEMLIpYIPMDDDFQ] | 17.8
DTDLDFEALAPYIPADDDFQ [DTDLDFEALApYIPADDDFQ] | 58.6

Target: EGLN1
Assay: cell-based or functional assay

Binder | Activity (%)* [%]
DTDLDLEAVAPYIPADDDFQ (not fully specified; printed as DTDLDLEAVApYIPADDDFQ) [DTDLDLEAVApYIPADDDFQ] | 99.2
DTDLDLEMLRPYIPMDDDFQ (not fully specified; printed as DTDLDLEMLRpYIPMDDDFQ) [DTDLDLEMLRpYIPMDDDFQ] | 19.8
DTDLDLEAKAPYIPADDDFQ [DTDLDLEAKApYIPADDDFQ] | 63.2
DTDLDLEAWAPYIPADDDFQ (not fully specified; printed as DTDLDLEAWApYIPADDDFQ) [DTDLDLEAWApYIPADDDFQ] | 50.4
DTDLDIEALAPYIPADDDFQ [DTDLDIEALApYIPADDDFQ] | 50.7
DTDLDLEMLEPYIPMDDDFQ (not fully specified; printed as DTDLDLEMLEpYIPMDDDFQ) [DTDLDLEMLEpYIPMDDDFQ] | 2.27
DTDLDIEAIAPYIPADDDFQ [DTDLDIEAIApYIPADDDFQ] | 72.5
DTDLDLEATAPYIPADDDFQ [DTDLDLEATApYIPADDDFQ] | 68.2
DTDLDAEAVAPYIPADDDFQ [DTDLDAEAVApYIPADDDFQ] | 34
DTDLDGEALAPYIPADDDFQ [DTDLDGEALApYIPADDDFQ] | 37.3
DTDLDLEMLCPYIPMDDDFQ (not fully specified; printed as DTDLDLEMLCpYIPMDDDFQ) [DTDLDLEMLCpYIPMDDDFQ] | 1.94
DTDLDVEAYAPYIPADDDFQ (not fully specified; printed as DTDLDVEAYApYIPADDDFQ) [DTDLDVEAYApYIPADDDFQ] | 35.5
DTDLDLEACAPYIPADDDFQ [DTDLDLEACApYIPADDDFQ] | 41.3
DTDLDCEALAPYIPADDDFQ [DTDLDCEALApYIPADDDFQ] | 44.7
DTDLDLEAYAPYIPADDDFQ (not fully specified; printed as DTDLDLEAYApYIPADDDFQ) [DTDLDLEAYApYIPADDDFQ] | 77.2
DTDLDVEAIAPYIPADDDFQ (not fully specified; printed as DTDLDVEAIApYIPADDDFQ) [DTDLDVEAIApYIPADDDFQ] | 45.3
DTDLDLEMLIPYIPMDDDFQ (not fully specified; printed as DTDLDLEMLIpYIPMDDDFQ) [DTDLDLEMLIpYIPMDDDFQ] | 15.6
DTDLDFEALAPYIPADDDFQ [DTDLDFEALApYIPADDDFQ] | 65.2

Target: EGLN3
Assay: cell-based or functional assay

Binder | Activity (%)* [%]
DTDLDLEAVAPYIPADDDFQ (not fully specified; printed as DTDLDLEAVApYIPADDDFQ) [DTDLDLEAVApYIPADDDFQ] | 117
DTDLDLEMLRPYIPMDDDFQ (not fully specified; printed as DTDLDLEMLRpYIPMDDDFQ) [DTDLDLEMLRpYIPMDDDFQ] | 77.6
DTDLDLEAKAPYIPADDDFQ [DTDLDLEAKApYIPADDDFQ] | 44.1
DTDLDLEAWAPYIPADDDFQ (not fully specified; printed as DTDLDLEAWApYIPADDDFQ) [DTDLDLEAWApYIPADDDFQ] | 37.3
DTDLDIEALAPYIPADDDFQ [DTDLDIEALApYIPADDDFQ] | 149
DTDLDLEMLEPYIPMDDDFQ (not fully specified; printed as DTDLDLEMLEpYIPMDDDFQ) [DTDLDLEMLEpYIPMDDDFQ] | 52.8
DTDLDIEAIAPYIPADDDFQ [DTDLDIEAIApYIPADDDFQ] | 72.8
DTDLDLEATAPYIPADDDFQ [DTDLDLEATApYIPADDDFQ] | 63.2
DTDLDAEAVAPYIPADDDFQ [DTDLDAEAVApYIPADDDFQ] | 35.6
DTDLDGEALAPYIPADDDFQ [DTDLDGEALApYIPADDDFQ] | 40.9
DTDLDLEMLCPYIPMDDDFQ (not fully specified; printed as DTDLDLEMLCpYIPMDDDFQ) [DTDLDLEMLCpYIPMDDDFQ] | 63.1
DTDLDVEAYAPYIPADDDFQ (not fully specified; printed as DTDLDVEAYApYIPADDDFQ) [DTDLDVEAYApYIPADDDFQ] | 44.5
DTDLDLEACAPYIPADDDFQ [DTDLDLEACApYIPADDDFQ] | 49.4
DTDLDCEALAPYIPADDDFQ [DTDLDCEALApYIPADDDFQ] | 75.8
DTDLDLEAYAPYIPADDDFQ (not fully specified; printed as DTDLDLEAYApYIPADDDFQ) [DTDLDLEAYApYIPADDDFQ] | 90.1
DTDLDVEAIAPYIPADDDFQ (not fully specified; printed as DTDLDVEAIApYIPADDDFQ) [DTDLDVEAIApYIPADDDFQ] | 43.3
DTDLDLEMLIPYIPMDDDFQ (not fully specified; printed as DTDLDLEMLIpYIPMDDDFQ) [DTDLDLEMLIpYIPMDDDFQ] | 101
DTDLDFEALAPYIPADDDFQ [DTDLDFEALApYIPADDDFQ] | 142
